For one substance, EMSA: binding of SRF in heart protein lysate to the biotin-labeled wild-type SRE probe (Mild-R SRF Tg vs Non-Tg) results are on record in patent publication US20090187998A1.

The target of the assay is wild-type serum response factor (SRF) in mouse heart (mouse) (UniProt Q9JM73). The assay can be described thus: cell-based or functional assay.
UniProt Q9JM73, sequence (Q9JM73 whole entry): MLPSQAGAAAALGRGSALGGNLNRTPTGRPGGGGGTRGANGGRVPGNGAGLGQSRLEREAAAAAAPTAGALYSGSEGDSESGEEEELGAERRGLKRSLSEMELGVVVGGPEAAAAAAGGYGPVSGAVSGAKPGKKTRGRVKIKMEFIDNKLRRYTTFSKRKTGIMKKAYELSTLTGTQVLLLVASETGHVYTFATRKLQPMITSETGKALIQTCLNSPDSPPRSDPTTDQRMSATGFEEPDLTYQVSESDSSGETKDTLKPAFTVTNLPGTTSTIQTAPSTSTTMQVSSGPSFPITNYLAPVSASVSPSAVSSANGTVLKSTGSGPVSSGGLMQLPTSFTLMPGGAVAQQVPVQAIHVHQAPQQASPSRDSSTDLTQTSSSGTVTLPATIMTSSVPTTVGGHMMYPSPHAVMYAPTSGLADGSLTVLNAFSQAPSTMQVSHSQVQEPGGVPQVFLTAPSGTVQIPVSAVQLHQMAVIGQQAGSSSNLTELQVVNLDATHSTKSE

In turn, “dominant negative mutant form of human SRF (Thr->Ser at position 159 and Lys->Glu at position 163 of SRF) (from UniProt P11831 1-508)” yielded an EMSA: binding of SRF in heart protein lysate to the biotin-labeled wild-type SRE probe (Mild-R SRF Tg vs Non-Tg) of 47 % reduced.
